The series concerns Escherichia coli TOP10. The experiment in a line: shrunken log2 fold change of peptide-encoding DNA abundance (4.5 h post-induction vs induction); higher = less antimicrobial activity (less host growth inhibition). Conditions: time post-induction: 4.5 h; library: site-saturation at positions 5, 18, 19, 20.
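Note: peptides expressed intracellularly from a pBAD plasmid library in pooled LB shake-flask culture, induced with 0.3% L-arabinose, DNA abundance read by NGS, three biological replicates, DESeq2 with apeglm shrinkage.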

On to RRIRTRPPRLPRPRPRPMCLPRP, for which the “shrunken log2 fold change” value turned out to be 0.0631.

As to RRIRERPPRLPRPRPRPLVEPRP, the “shrunken log2 fold change” value is -0.229.

For the sequence RRIRIRPPRLPRPRPRPQVGPRP, the “shrunken log2 fold change” value was -0.094.

As for RRIRRRPPRLPRPRPRPFPHPRP, the “shrunken log2 fold change” value stood at 0.292.

Regarding RRIRWRPPRLPRPRPRPETRPRP, the “shrunken log2 fold change” value was 1.32.

Turning to RRIRGRPPRLPRPRPRPNDPPRP, the “shrunken log2 fold change” value is -0.0529.

For RRIRFRPPRLPRPRPRPACLPRP, the “shrunken log2 fold change” value is -0.105.

With RRIRVRPPRLPRPRPRPCACPRP, the “shrunken log2 fold change” value amounted to 0.0537.

With RRIRTRPPRLPRPRPRPWHLPRP, the “shrunken log2 fold change” value is -0.0134.

Turning to RRIRQRPPRLPRPRPRPRLCPRP, the “shrunken log2 fold change” value is 0.423.

For the sequence RRIRKRPPRLPRPRPRPTAWPRP, the “shrunken log2 fold change” value came out at 1.13.

Regarding RRIRRRPPRLPRPRPRPYESPRP, the “shrunken log2 fold change” value is 0.0181.

In the case of RRIRKRPPRLPRPRPRPNTFPRP, the “shrunken log2 fold change” value is -0.0899.

With RRIRQRPPRLPRPRPRPLLIPRP, the “shrunken log2 fold change” value was -0.141.

As to RRIRKRPPRLPRPRPRPTNNPRP, the “shrunken log2 fold change” value was -0.2.

For RRIRMRPPRLPRPRPRPEVDPRP, the “shrunken log2 fold change” value stood at 0.784.

Regarding RRIRGRPPRLPRPRPRPLRDPRP, the “shrunken log2 fold change” value is 1.3.

In the case of RRIRMRPPRLPRPRPRPYVKPRP, the “shrunken log2 fold change” value was -0.209.

In the case of RRIRMRPPRLPRPRPRPNFMPRP, the “shrunken log2 fold change” value is -0.0364.

On to RRIRFRPPRLPRPRPRPLQAPRP, for which the “shrunken log2 fold change” value was 0.285.

Consider RRIRMRPPRLPRPRPRPWFAPRP, for which the “shrunken log2 fold change” value was determined as 0.18.

As for RRIRMRPPRLPRPRPRPNYSPRP, the “shrunken log2 fold change” value is -0.416.

Consider RRIRLRPPRLPRPRPRPSQWPRP, for which the “shrunken log2 fold change” value stood at 0.0987.

As to RRIRDRPPRLPRPRPRPGKSPRP, the “shrunken log2 fold change” value stood at 0.0637.

Take RRIRPRPPRLPRPRPRPHKQPRP: the “shrunken log2 fold change” value is -0.022.

On to RRIRDRPPRLPRPRPRPYTKPRP, for which the “shrunken log2 fold change” value is -1.06.

As to RRIRKRPPRLPRPRPRPDEAPRP, the “shrunken log2 fold change” value was found to be 3.09.

Take RRIRTRPPRLPRPRPRPNAWPRP: the “shrunken log2 fold change” value is 0.0447.

For RRIRKRPPRLPRPRPRPLWDPRP, the “shrunken log2 fold change” value is 0.609.

With RRIRCRPPRLPRPRPRPRCMPRP, the “shrunken log2 fold change” value was -0.143.

Turning to RRIRPRPPRLPRPRPRPRWIPRP, the “shrunken log2 fold change” value was found to be 0.157.

Take RRIRKRPPRLPRPRPRPYKWPRP: the “shrunken log2 fold change” value stood at 0.000411.

As for RRIRRRPPRLPRPRPRPWLGPRP, the “shrunken log2 fold change” value was 0.353.

Take RRIRYRPPRLPRPRPRPRTQPRP: the “shrunken log2 fold change” value amounted to 0.0444.

As for RRIRVRPPRLPRPRPRPCTDPRP, the “shrunken log2 fold change” value is -0.46.

Regarding RRIRARPPRLPRPRPRPGSCPRP, the “shrunken log2 fold change” value stood at 0.32.

On to RRIRDRPPRLPRPRPRPNYSPRP, for which the “shrunken log2 fold change” value is -0.792.

On to RRIRVRPPRLPRPRPRPFMPPRP, for which the “shrunken log2 fold change” value was -0.355.

As to RRIRHRPPRLPRPRPRPPTGPRP, the “shrunken log2 fold change” value stood at 0.03.

Regarding RRIRLRPPRLPRPRPRPWKNPRP, the “shrunken log2 fold change” value is -0.114.

For the sequence RRIRVRPPRLPRPRPRPAAQPRP, the “shrunken log2 fold change” value was determined as 0.433.

For the sequence RRIRSRPPRLPRPRPRPKPMPRP, the “shrunken log2 fold change” value was 0.2.

For RRIRWRPPRLPRPRPRPSIMPRP, the “shrunken log2 fold change” value was -0.0893.

As to RRIRIRPPRLPRPRPRPRHNPRP, the “shrunken log2 fold change” value is -0.245.

Turning to RRIRTRPPRLPRPRPRPNNKPRP, the “shrunken log2 fold change” value was -0.474.

Consider RRIRVRPPRLPRPRPRPLRDPRP, for which the “shrunken log2 fold change” value is 0.725.

RRIRTRPPRLPRPRPRPENGPRP: the “shrunken log2 fold change” value came to 0.0885.

On to RRIRMRPPRLPRPRPRPYCNPRP, for which the “shrunken log2 fold change” value was -0.189.

For the sequence RRIRPRPPRLPRPRPRPDVEPRP, the “shrunken log2 fold change” value is -0.0392.

With RRIRTRPPRLPRPRPRPYGTPRP, the “shrunken log2 fold change” value was -0.347.

Regarding RRIRNRPPRLPRPRPRPRFIPRP, the “shrunken log2 fold change” value was -0.533.

For RRIRMRPPRLPRPRPRPAQYPRP, the “shrunken log2 fold change” value is 0.377.

On to RRIRVRPPRLPRPRPRPRIPPRP, for which the “shrunken log2 fold change” value amounted to 0.183.

Take RRIRKRPPRLPRPRPRPTGRPRP: the “shrunken log2 fold change” value worked out at 0.609.

For RRIRERPPRLPRPRPRPVKEPRP, the “shrunken log2 fold change” value was -0.0153.

For RRIRCRPPRLPRPRPRPNAIPRP, the “shrunken log2 fold change” value was 0.0905.

Take RRIRGRPPRLPRPRPRPPIRPRP: the “shrunken log2 fold change” value was determined as 0.849.

As for RRIRTRPPRLPRPRPRPAEQPRP, the “shrunken log2 fold change” value turned out to be 0.0493.

Take RRIRGRPPRLPRPRPRPASWPRP: the “shrunken log2 fold change” value turned out to be 2.63.

Turning to RRIRHRPPRLPRPRPRPGCCPRP, the “shrunken log2 fold change” value is 0.0396.

RRIRWRPPRLPRPRPRPKFVPRP: the “shrunken log2 fold change” value stood at 0.295.

For the sequence RRIRNRPPRLPRPRPRPVSQPRP, the “shrunken log2 fold change” value was -0.0152.

For the sequence RRIRIRPPRLPRPRPRPYRNPRP, the “shrunken log2 fold change” value is -0.0378.

Turning to RRIRHRPPRLPRPRPRPYYAPRP, the “shrunken log2 fold change” value is -0.417.

Consider RRIRERPPRLPRPRPRPIEDPRP, for which the “shrunken log2 fold change” value is -0.199.

Consider RRIRFRPPRLPRPRPRPCSAPRP, for which the “shrunken log2 fold change” value is -0.103.

As for RRIRQRPPRLPRPRPRPSGSPRP, the “shrunken log2 fold change” value is -0.0833.

In the case of RRIRLRPPRLPRPRPRPKIYPRP, the “shrunken log2 fold change” value was -0.492.

For RRIRYRPPRLPRPRPRPEIAPRP, the “shrunken log2 fold change” value is -0.185.

For RRIRNRPPRLPRPRPRPSRLPRP, the “shrunken log2 fold change” value is 0.14.

On to RRIRARPPRLPRPRPRPDTDPRP, for which the “shrunken log2 fold change” value amounted to 0.365.

For the sequence RRIRVRPPRLPRPRPRPFQRPRP, the “shrunken log2 fold change” value turned out to be 0.0825.

Regarding RRIRSRPPRLPRPRPRPYLGPRP, the “shrunken log2 fold change” value is -0.204.

For the sequence RRIRRRPPRLPRPRPRPSFGPRP, the “shrunken log2 fold change” value worked out at 0.365.

As for RRIRMRPPRLPRPRPRPTSSPRP, the “shrunken log2 fold change” value is 0.148.

Regarding RRIRDRPPRLPRPRPRPPVPPRP, the “shrunken log2 fold change” value turned out to be 0.635.

Take RRIRGRPPRLPRPRPRPYMVPRP: the “shrunken log2 fold change” value was -0.296.

In the case of RRIRMRPPRLPRPRPRPNAYPRP, the “shrunken log2 fold change” value turned out to be 0.311.

Take RRIRRRPPRLPRPRPRPYGPPRP: the “shrunken log2 fold change” value was -0.64.

Turning to RRIRDRPPRLPRPRPRPPCRPRP, the “shrunken log2 fold change” value was -0.0227.

As to RRIRQRPPRLPRPRPRPGWKPRP, the “shrunken log2 fold change” value was found to be 0.115.

On to RRIRIRPPRLPRPRPRPFQMPRP, for which the “shrunken log2 fold change” value is -0.271.

For RRIRGRPPRLPRPRPRPPSGPRP, the “shrunken log2 fold change” value was found to be 0.766.

In the case of RRIRKRPPRLPRPRPRPKAMPRP, the “shrunken log2 fold change” value is -0.0457.

Turning to RRIRWRPPRLPRPRPRPFHEPRP, the “shrunken log2 fold change” value is -0.0657.

For RRIRQRPPRLPRPRPRPERSPRP, the “shrunken log2 fold change” value came to 0.0688.

On to RRIRNRPPRLPRPRPRPQDVPRP, for which the “shrunken log2 fold change” value is -0.0757.

For RRIRMRPPRLPRPRPRPCVDPRP, the “shrunken log2 fold change” value came out at 0.0636.

Consider RRIRRRPPRLPRPRPRPQEYPRP, for which the “shrunken log2 fold change” value was -0.0725.

On to RRIRFRPPRLPRPRPRPHGRPRP, for which the “shrunken log2 fold change” value turned out to be 0.187.

For RRIRQRPPRLPRPRPRPEAWPRP, the “shrunken log2 fold change” value is 0.316.

As for RRIRKRPPRLPRPRPRPGRGPRP, the “shrunken log2 fold change” value stood at 0.593.

RRIRFRPPRLPRPRPRPMCLPRP: the “shrunken log2 fold change” value is -0.564.

On to RRIRFRPPRLPRPRPRPRSPPRP, for which the “shrunken log2 fold change” value turned out to be 1.06.

Turning to RRIRSRPPRLPRPRPRPSVQPRP, the “shrunken log2 fold change” value is -0.0563.

In the case of RRIRTRPPRLPRPRPRPANQPRP, the “shrunken log2 fold change” value is -0.102.

As to RRIRHRPPRLPRPRPRPWTPPRP, the “shrunken log2 fold change” value was -0.502.

For the sequence RRIRGRPPRLPRPRPRPTMQPRP, the “shrunken log2 fold change” value worked out at 0.907.

Regarding RRIRQRPPRLPRPRPRPDREPRP, the “shrunken log2 fold change” value stood at 0.00931.

Consider RRIRVRPPRLPRPRPRPEHYPRP, for which the “shrunken log2 fold change” value came out at 0.0358.

As for RRIRQRPPRLPRPRPRPESKPRP, the “shrunken log2 fold change” value stood at 0.0494.

Turning to RRIRQRPPRLPRPRPRPRVDPRP, the “shrunken log2 fold change” value was 0.241.

For the sequence RRIRFRPPRLPRPRPRPDNTPRP, the “shrunken log2 fold change” value is -0.491.

With RRIRNRPPRLPRPRPRPVKHPRP, the “shrunken log2 fold change” value is -0.23.

Consider RRIRVRPPRLPRPRPRPWHGPRP, for which the “shrunken log2 fold change” value is -0.121.

Turning to RRIRRRPPRLPRPRPRPYGSPRP, the “shrunken log2 fold change” value was -0.00192.

Regarding RRIRDRPPRLPRPRPRPAKMPRP, the “shrunken log2 fold change” value is -0.156.

Regarding RRIRMRPPRLPRPRPRPLQNPRP, the “shrunken log2 fold change” value amounted to 1.2.

Take RRIRERPPRLPRPRPRPFEEPRP: the “shrunken log2 fold change” value is -0.217.

In the case of RRIRQRPPRLPRPRPRPPTNPRP, the “shrunken log2 fold change” value came to 0.201.

As to RRIRHRPPRLPRPRPRPVHLPRP, the “shrunken log2 fold change” value is -0.0199.

On to RRIRSRPPRLPRPRPRPYMVPRP, for which the “shrunken log2 fold change” value was -0.497.

Regarding RRIRVRPPRLPRPRPRPVMVPRP, the “shrunken log2 fold change” value was -0.166.

On to RRIRARPPRLPRPRPRPTHVPRP, for which the “shrunken log2 fold change” value turned out to be 0.813.

Take RRIRWRPPRLPRPRPRPTRCPRP: the “shrunken log2 fold change” value was found to be 0.0338.

For the sequence RRIRCRPPRLPRPRPRPYPHPRP, the “shrunken log2 fold change” value was -0.438.

As to RRIRSRPPRLPRPRPRPVHNPRP, the “shrunken log2 fold change” value turned out to be 0.0673.

On to RRIRWRPPRLPRPRPRPKNDPRP, for which the “shrunken log2 fold change” value came to 0.0313.

Consider RRIRYRPPRLPRPRPRPRASPRP, for which the “shrunken log2 fold change” value was -0.412.

Regarding RRIRLRPPRLPRPRPRPTYEPRP, the “shrunken log2 fold change” value is -0.308.

Regarding RRIRQRPPRLPRPRPRPRCLPRP, the “shrunken log2 fold change” value is 0.176.

For RRIRLRPPRLPRPRPRPNLCPRP, the “shrunken log2 fold change” value turned out to be 0.119.

Take RRIRRRPPRLPRPRPRPKFNPRP: the “shrunken log2 fold change” value was found to be 0.00967.

Take RRIRRRPPRLPRPRPRPQSNPRP: the “shrunken log2 fold change” value was -0.285.

With RRIRKRPPRLPRPRPRPDWIPRP, the “shrunken log2 fold change” value was -0.0252.

The record behind these values is the supplement of paper PMC9112550, “Optimization of the antimicrobial peptide Bac7 by deep mutational scanning” (BMC Biology, 2022).
